Assay results as given in patent publication US10828326B2, “Compositions and methods for treating and preventing venom related poisoning” (priority 2015, dated 2020).

Tested on: human plasma
Assay: Thrombelastography of human plasma exposed to Crotalus atrox venom and/or tPA (Example II)
Assay type: biochemical
Details: 0.5 μg/ml venom 5 min and/or 100 IU/ml tPA
Method: Two hundred mg of lyophilized, pooled venom was obtained from four western diamondback rattlesnakes (Crotalus atrox) for experimentation. Venom was reconstituted in calcium-free phosphate buffered saline (PBS, Sigma-Aldrich, Saint Louis, Mo., USA) at a concentration of 20 mg/ml, aliquoted, and then stored at −80° C. until experimentation at the University of Arizona.
Pooled normal plasma (George King Bio-Medical, Overland Park, Kans., USA) anticoagulated with sodium citrate was rapidly thawed at 37° C. and used for experimentation. To assess the effects of pretreatment of antifibrinolytic plasma proteins with iron, CO, or both, 1% additions of PBS, ferric chloride (FeCl3, 99.9% pure, Sigma-Aldrich, Saint Louis, Mo., USA) in PBS, or CORM-2 (tricarbonyldichlororuthenium (II) dimer, a CO releasing molecule, Sigma-Aldrich, Saint Louis, Mo., USA) dissolved in dimethyl sulfoxide (DMSO, Sigma-Aldrich, Saint Louis, Mo., USA) were used. […] Plasma was exposed to these various agents for at least 5 min prior to incubations with venom.
The final volume for all subsequently described plasma sample mixtures was 359.4 μl. […] The following elastic modulus-based parameters previously described (see, Nielsen V G, Pretorius E. Blood Coagul Fibrinolysis 2014; 25:695-702) were determined: time to maximum rate of thrombus generation (TMRTG): this is the time interval (min) observed prior to maximum speed of clot growth; maximum rate of thrombus generation (MRTG): this is the maximum velocity of clot growth observed (dynes/cm^2/sec); total thrombus generation (TTG, dynes/cm^2), the final viscoelastic resistance observed after clot formation; time to maximum rate of lysis (TMRL, min), maximum rate of lysis (MRL, dynes/cm^2/sec) and CLT (min). […]

[1] = vs control conditions (combination: vs all other conditions)

B1: tPA: tissue type plasminogen activator, 580 IU/μg, Genentech; 100 IU/ml final concentration (protein, UniProt P00750 36-562, looked up)
Tissue-type plasminogen …: SYQVICRDEKTQMIYQQHQSWLRPVLRSNRVEYCWCNSGRAQCHSVPVKSCSEPRCFNGGTCQQALYFSDFVCQCPEGFAGKCCEIDTRATCYEDQGISYRGTWSTAESGAECTNWNSSALAQKPYSGRRPDAIRLGLGNHNYCRNPDRDSKPWCYVFKAGKYSSEFCSTPACSEGNSDCYFGNGSAYRGTHSLTESGASCLPWNSMILIGKVYTAQNPSAQALGLGKHNYCRNPDGDAKPWCHVLKNRRLTWEYCDVPSCSTCGLRQYSQPQFRIKGGLFADIASHPWQAAIFAKHRRSPGERFLCGGILISSCWILSAAHCFQERFPPHHLTVILGRTYRVVPGEEEQKFEVEKYIVHKEFDDDTYDNDIALLQLKSDSSRCAQESSVVRTVCLPPADLQLPDWTECELSGYGKHEALSPFYSERLKEAHVRLYPSSRCTSQHLLNRTVTDNMLCAGDTRSGGPQANLHDACQGDSGGPLVCLNDGRMTLVGIISWGLGCGQKDVPGVYTKVTNYLDWIRDNMRP
maximum rate of thrombus generation (MRTG) [1]: did not decrease
total thrombus generation (TTG) [1]: significantly decreased
time to maximum rate of thrombus generation (TMRTG) (vs control conditions (combination: vs any other condition)): did not prolong
